Protein stability index data for 94 variants are collected here from the supplement of paper PMC10567573.

The chains are these.
B1: INTS3 (parent)
chain: KKREFRFHPIKETVVEEPVDITPY
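Also: lentivirally expressed fusions sorted by FACS into six bins by GFP to DsRed ratio, PSI derived from sequencing read proportions per bin multiplied by bin number.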

In this series the parent is B1. As to the kind of experiment: protein stability index of a GFP-peptide fusion (GPS, HEK-293T) (PSI 1-6); higher = more stable. To be noted: c terminus: a fixed tail appended.
As to KKREFRFHPIHETVVEEPVDITPY [K11H], the protein stability index was determined as 2.04. The figure for KKREFRFHPIDETVVEEPVDITPY [K11D] is 2.72; for KKREFRFHPIEETVVEEPVDITPY [K11E] it is 2.5. Consider KKREFRFHPIAETVVEEPVDITPY [K11A], for which the protein stability index came out at 1.82. Take KKREFRFHPIPETVVEEPVDITPY [K11P]: the protein stability index came to 2.33. With KKREFRFHPIWETVVEEPVDITPY [K11W], the protein stability index is 1.61.

KKREWRFHPIKETVVEEPVDITPY [F5W]: the protein stability index worked out at 2.56. Consider KKREVRFHPIKETVVEEPVDITPY [F5V], for which the protein stability index was 4.63. As to KKREARFHPIKETVVEEPVDITPY [F5A], the protein stability index came out at 4.36. As to KKREKRFHPIKETVVEEPVDITPY [F5K], the protein stability index came out at 4.75. Then KKREQRFHPIKETVVEEPVDITPY [F5Q], with 4.37. On to KKRESRFHPIKETVVEEPVDITPY [F5S], for which the protein stability index was 4.45.

On to KKREMRFHPIKETVVEEPVDITPY [F5M], for which the protein stability index is 4.36.

On to KKRETRFHPIKETVVEEPVDITPY [F5T], for which the protein stability index was found to be 4.52. For KKREHRFHPIKETVVEEPVDITPY [F5H], the protein stability index was 4.36. KKREERFHPIKETVVEEPVDITPY [F5E]: the protein stability index is 4.8. With KKREGRFHPIKETVVEEPVDITPY [F5G], the protein stability index came out at 4.34. As for KKREDRFHPIKETVVEEPVDITPY [F5D], the protein stability index stood at 4.4. Then KKRERRFHPIKETVVEEPVDITPY [F5R], with 4.56. The figure for KKREIRFHPIKETVVEEPVDITPY [F5I] is 4.06; for KKREPRFHPIKETVVEEPVDITPY [F5P] it is 4.18; for KKRECRFHPIKETVVEEPVDITPY [F5C] it is 4.39.

Regarding KKRENRFHPIKETVVEEPVDITPY [F5N], the protein stability index stood at 4.53. Take KKRELRFHPIKETVVEEPVDITPY [F5L]: the protein stability index was found to be 4.01. Turning to KKREYRFHPIKETVVEEPVDITPY [F5Y], the protein stability index turned out to be 3.92. Take KKREFRFHPIKEMVVEEPVDITPY [T13M]: the protein stability index was 1.57. As to KKREFRFHPIKEKVVEEPVDITPY [T13K], the protein stability index was 1.96. Regarding KKREFRFHPIKELVVEEPVDITPY [T13L], the protein stability index turned out to be 1.43. For KKREFRFHPIKENVVEEPVDITPY [T13N], the protein stability index turned out to be 1.63. Regarding KKREFRFHPIKEGVVEEPVDITPY [T13G], the protein stability index amounted to 2.33. Take KKREFRFHPIKEHVVEEPVDITPY [T13H]: the protein stability index is 2.06.

For the variant KKREFRFHPIKEAVVEEPVDITPY [T13A], the protein stability index was 1.92. KKREFRFHPIKEEVVEEPVDITPY [T13E]: the protein stability index came out at 2.39.

Turning to KKREFRFHPIKECVVEEPVDITPY [T13C], the protein stability index was 2.38. The figure for KKREFRFHPIKEFVVEEPVDITPY [T13F] is 1.54; for KKREFRFHPIKEDVVEEPVDITPY [T13D] it is 2.19.

KKREFRFHPIKEIVVEEPVDITPY [T13I]: the protein stability index was found to be 1.58. KKREFRFHPVKETVVEEPVDITPY [I10V]: the protein stability index is 1.98. As for KKREFRFHPPKETVVEEPVDITPY [I10P], the protein stability index was determined as 1.9. In the case of KKREFRFHPEKETVVEEPVDITPY [I10E], the protein stability index turned out to be 2.4.

As to KKREFRFHPCKETVVEEPVDITPY [I10C], the protein stability index came to 1.51. On to KKREFRFHPMKETVVEEPVDITPY [I10M], for which the protein stability index was found to be 1.87. In the case of KKREFRFHPSKETVVEEPVDITPY [I10S], the protein stability index was determined as 1.64. KKREFRFHPAKETVVEEPVDITPY [I10A]: the protein stability index turned out to be 2.08. Consider KKREFRFHPKKETVVEEPVDITPY [I10K], for which the protein stability index is 2.02.

KKREFRFHPFKETVVEEPVDITPY [I10F]: the protein stability index was 2.69. Turning to KKREFRFHPLKETVVEEPVDITPY [I10L], the protein stability index was determined as 1.75. In the case of KKREFRFHPGKETVVEEPVDITPY [I10G], the protein stability index was 2.3. Consider KKREFRFHPYKETVVEEPVDITPY [I10Y], for which the protein stability index amounted to 4.54. Consider KKREFRFHPQKETVVEEPVDITPY [I10Q], for which the protein stability index was 1.83. Take KKREFRFHPHKETVVEEPVDITPY [I10H]: the protein stability index was 2.09. In the case of KKREFRFHPNKETVVEEPVDITPY [I10N], the protein stability index was found to be 2.84. As to KKREFRFHPDKETVVEEPVDITPY [I10D], the protein stability index came to 2.28. The figure for KKREFRFHPRKETVVEEPVDITPY [I10R] is 1.41. As to KKREFRFHPWKETVVEEPVDITPY [I10W], the protein stability index is 3.25. For the variant KKREFRFHPTKETVVEEPVDITPY [I10T], the protein stability index amounted to 2.27. For KKREFEFHPIKETVVEEPVDITPY [R6E], the protein stability index came to 4.48. As for KKREFHFHPIKETVVEEPVDITPY [R6H], the protein stability index worked out at 4.52.

Consider KKREFMFHPIKETVVEEPVDITPY [R6M], for which the protein stability index was 4.02. Regarding KKREFQFHPIKETVVEEPVDITPY [R6Q], the protein stability index was 4.23.

With KKREFDFHPIKETVVEEPVDITPY [R6D], the protein stability index was found to be 4.24. For the variant KKREFPFHPIKETVVEEPVDITPY [R6P], the protein stability index stood at 4.38. Consider KKREFIFHPIKETVVEEPVDITPY [R6I], for which the protein stability index was found to be 4.01. The figure for KKREFNFHPIKETVVEEPVDITPY [R6N] is 4.25.

Take KKREFWFHPIKETVVEEPVDITPY [R6W]: the protein stability index was found to be 2.55. As to KKREFYFHPIKETVVEEPVDITPY [R6Y], the protein stability index turned out to be 3.66.

On to KKREFFFHPIKETVVEEPVDITPY [R6F], for which the protein stability index was 2.57. Then KKREFVFHPIKETVVEEPVDITPY [R6V], with 3.49; and KKREFGFHPIKETVVEEPVDITPY [R6G], with 4.57; and KKREFCFHPIKETVVEEPVDITPY [R6C], with 3.87. For the variant KKREFAFHPIKETVVEEPVDITPY [R6A], the protein stability index amounted to 3.97. In the case of KKREFLFHPIKETVVEEPVDITPY [R6L], the protein stability index worked out at 4.15. As to KKREFSFHPIKETVVEEPVDITPY [R6S], the protein stability index was 4.31. The figure for KKREFTFHPIKETVVEEPVDITPY [R6T] is 4.38. Turning to KKREFKFHPIKETVVEEPVDITPY [R6K], the protein stability index came out at 4.23. In the case of KKREFRFFPIKETVVEEPVDITPY [H8F], the protein stability index came to 3.49. Consider KKREFRFGPIKETVVEEPVDITPY [H8G], for which the protein stability index came to 3.93. For KKREFRFSPIKETVVEEPVDITPY [H8S], the protein stability index was determined as 3.54.

For the variant KKREFRFDPIKETVVEEPVDITPY [H8D], the protein stability index is 4.47. Regarding KKREFRFQPIKETVVEEPVDITPY [H8Q], the protein stability index was 3.45. Consider KKREFRFRPIKETVVEEPVDITPY [H8R], for which the protein stability index is 4.07.

For KKREFRFEPIKETVVEEPVDITPY [H8E], the protein stability index worked out at 3.55. Take KKREFRFLPIKETVVEEPVDITPY [H8L]: the protein stability index is 3.97. For the variant KKREFRFKPIKETVVEEPVDITPY [H8K], the protein stability index is 4.01.

For the variant KKREFRFCPIKETVVEEPVDITPY [H8C], the protein stability index is 3.25. Consider KKREFRFIPIKETVVEEPVDITPY [H8I], for which the protein stability index turned out to be 2.8.

Consider KKREFRFMPIKETVVEEPVDITPY [H8M], for which the protein stability index was 3.79.

On to KKREFRFPPIKETVVEEPVDITPY [H8P], for which the protein stability index was 4.58. The figure for KKREFRFYPIKETVVEEPVDITPY [H8Y] is 3.43; for KKREFRFTPIKETVVEEPVDITPY [H8T] it is 3.34. In the case of KKREFRFAPIKETVVEEPVDITPY [H8A], the protein stability index was 3.27. Then KKREFRFWPIKETVVEEPVDITPY [H8W], with 3.41. Take KKREFRFVPIKETVVEEPVDITPY [H8V]: the protein stability index is 2.49. Then KKREFRFNPIKETVVEEPVDITPY [H8N], with 3.96.
